# From patent publication US20250122303A1 (HUMMINGBIRD BIOSCIENCE PTE, published 2025)
# Numbering of substitutions follows the chain as printed.
# B1: LJM716 (antibody, V domains shown)
# VH: EVQLLESGGGLVQPGGSLRLSCAASGFTFSSYAMSWVRQAPGKGLEWVSAINSQGKSTYYADSVKGRFTISRDNSKNTLYLQMNSLRAEDTAVYYCARWGDEGFDIWGQGTLVTVSS
# VL: DIQMTQSPSSLSASVGDRVTITCRASQGISNWLAWYQQKPGKAPKLLIYGASSLQSGVPSRFSGSGSGTDFTLTISSLQPEDFATYYCQQYSSFPTTFGQGTKVEIK
# B2: anti-HER3 clone 4-35-B2 IgG1 (antibody, V domains shown)
# VH: EIQLQQSGPELVKPGASVKVSCKASGYSFTDYNMYWVKQSHGKSLEWIGHINPYNGGTTYNQKFKGRATLTVDKSSSTAFMHLNSLTSEDSAVYFCVSLRWGAMDYWGQGTSVTVSS
# VL: QIVLTQSPALMSASPGEKVTMTCSASSSVSYMYWYQQKPRSSPKPWIYLTSNLASGVPARFSGSGSGTSYSLTISSMEAEDAATYYCQQWNSNPYTFGGGTKLEIKR
# notes: Human-mouse chimeric IgG1/kappa
# B3: anti-HER3 clone 10D1_c93 IgG1 (antibody, V domains shown)
# VH: DVQLQEWGAGLLKPSETLSLTCAVTGYSITSGYSWHWIRQFPGNGLEWIGSIHYSGGTNYNPSLKSRITISRDTSKNQFSLRLSSVTAADTAVYFCARMTTAPRYPFDYWGQGTLVTVSS
# VL: DIVMTQSPSSLSASVGDRVTITCKASQIVGSNVAWYQQKPGKSPKPLIYSASYLYSDVPSRFSGSGSGTDFTMTISSLQPEDVATYYCQQYSSHPLTFGPGTKVEIKR
# notes: Humanised 10D1 variant, IgG1/kappa
# B4: anti-HER3 clone 10D1_11B IgG1 (antibody, V domains shown)
# VH: B3 VH with T25Y, F41P, N44K, I68V, R82K, F95Y
# VL: B3 VL with L54G, M73L, Q79R
# notes: Humanised 10D1 variant, IgG1/kappa; also called v11b78L; C78 v11b
# B5: anti-HER3 clone 10D1_c76 IgG1 (antibody, V domains shown)
# VH: B3 VH with R82K
# VL: B3 VL with V15G, S31Y, G64A, M73L, T85E, Y87F
# notes: as for B3
# B6: anti-HER3 clone 10D1_c85o2 IgG1 (antibody, V domains shown)
# VH: B3 VH with N44K, H53R, R82K, S84G, M99G
# VL: B3 VL with S52R, L54Q, D57G, S60F, M73L
# notes: Humanised 10D1 variant, IgG1/kappa; also called 10D1_c8502
# B7: anti-HER3 clone 10D1_c87 IgG1 (antibody, V domains shown)
# VH: B3 VH
# VL: B3 VL with K39M, K45E
# notes: as for B3
# Key:
# [1] = molecular target: T1, human HER3 expressed on cells (HEK293 HER3 O/E cells) (human, UniProt P21860 20-1342); test: flow cytometry on HEK293T HER3 O/E cells, 10 ug antibody as printed, FITC-conjugated anti-Fc secondary
# T1 construct: Also used here for HER3 on U2OS cells of the PathHunter kit and on cancer cell lines; also called HEK293 cells transfected with vector encoding human HER3; human HER3-expressing cells
# Protocol: The cells were washed with buffer (PBS with 2 mM EDTA and 0.5% BSA) and resuspended in FITC-conjugated anti-FC antibody (Invitrogen, USA) at 10 μg/ml for 20 min at 4° C. Cells were washed again and resuspended in 200 μL of FACS flow buffer (PBS with 5 mM EDTA) for flow cytometric analysis using MACSQuant 10 (Miltenyi Biotec, Germany). Unstained WT and transfected HEK293 cells were included in the analysis as negative controls. After acquisition, all raw data were analyzed using Flowlogic software. Cells were gated using forward and side scatter profile percentage of positive cells was determined for native and overexpressing cell populations.
# [2] = molecular target: T1, human HER3 expressed on cells (HEK293 …); test: flow cytometry, HEK293 cells overexpressing human HER3, 20 ug/ml antibody, FITC anti-Fc secondary; same antibody on WT HEK293: 1.91
# [3] = molecular target: T2, His-tagged human HER3 (human, UniProt P21860 20-643); test: BLI (Octet QK384), antibody captured on AHC sensors, His-tagged human HER3 in solution, without NRG1
# T2 construct: Antigen of the BLI experiments and of the HER2-Fc dimerisation ELISA; also called HER3 His; not shown: His tag
# [4] = molecular target: T1, human HER3 expressed on cells (HEK293 …); test: flow cytometry, HEK293 cells overexpressing human HER3, 20 ug/ml antibody, FITC anti-Fc secondary; same antibody on WT HEK293: 8.15
# [5] = molecular target: T3, mouse HER3 (mouse, UniProt Q61526 20-641); test: ELISA, plate coated with 0.1 ug/ml mouse HER3, antibody titrated, absorbance 450 nm
# T3 construct: also called mouse homologue of HER3 (Sino Biological Inc.); M. musculus HER3
# Protocol: (§1) ELISAs were used to determine the binding specificity of the antibodies. The antibodies were analysed for binding to human HER3 polypeptide, as well as respective mouse, rat and monkey homologues of HER3 (Sino Biological Inc., China). The antibodies were also analysed for their ability to bind to human EGFR and human HER2 (Sino Biological Inc., China).
# (§2) ELISAs were carried out according to standard protocols. Briefly, 96-well plates (Nunc, Denmark) were coated with 0.1 μg/ml of target polypeptide in phosphate-buffered saline (PBS) for 16 h at 4° C. After blocking for 1 h with 1% BSA in Tris buffer saline (TBS) at room temperature, the anti-HER3 antibody was serially diluted with the highest concentration being 10 μg/ml, and added to the plate. Post 1 h incubation at room temperature, plates were washed three times with TBS containing 0.05% Tween 20 (TBS-T) and were then incubated with a HRP-conjugated […] antibody (Life Technologies, Inc., USA) for 1 h at room temperature. After washing, plates were developed with colorimetric detection substrate 3,3′,5,5′-tetramethylbenzidine (Turbo-TMB; Pierce, USA) for 10 min. The reaction was stopped with 2M H₂SO₄, and OD was measured at 450 nm.
# [6] = molecular target: T2, His-tagged human HER3; test: BLI (Octet QK384), antibody on anti-human IgG capture tips, His-tagged human HER3 in solution, global one-site fit
# Protocol: (§3) The anti-HER3 antibody clones in IgG1 format were analysed for binding affinity to human HER3. Bio-Layer Interferometry (BLI) experiments were performed using the Octet QK384 system (ForteBio). anti-Human IgG Capture (AHC) Octet sensor tips (Pall ForteBio, USA) were used to anti-HER3 antibodies (25 nM). All measurements were performed at 25° C. with agitation at 1000 rpm. […] Sensograms were referenced for buffer effects and then fitted using the Octet QK384 user software (Pall ForteBio, USA). Kinetic responses were subjected to a global fitting using a one site binding model to obtain values for association (Kₒₙ), dissociation (Koff) rate constants and the equilibrium dissociation constant (KD). Only curves that could be reliably fitted with the software (R²>0.90) were included in the analysis.
# [7] = molecular target: T4, human EGFR (human, UniProt P00533 25-645); test: ELISA, plate coated with 0.1 ug/ml human EGFR, antibody titrated, absorbance 450 nm
# T4 construct: also called human HER1 (EGFR) (Sino Biological Inc.)
# Protocol: as §1, §2
# [8] = molecular target: T1, human HER3 expressed on cells (HEK293 …); test: flow cytometry, HEK293 cells overexpressing human HER3, 20 ug/ml antibody, FITC anti-Fc secondary; same antibody on WT HEK293: 17.31
# Protocol: (§4) The cells were washed thrice with FACS buffer (PBS with 5 mM EDTA and 0.5% BSA) and resuspended in FITC-conjugated anti-FC antibody (Invitrogen, USA) for 40 min at 2-8° C. Cells were washed again and resuspended in 200 μL of FACS flow buffer (PBS with 5 mM EDTA) for flow cytometric analysis using MACSQuant 10 (Miltenyi Biotec, Germany). After acquisition, all raw data were analyzed using Flowlogic software. Cells were gated using forward and side scatter profile percentage of positive cells was determined for native and overexpressing cell populations.
# [9] = molecular target: T1, human HER3 expressed on cells (HEK293 …); test: as above; remark: listed apart in the source
# Protocol: as §4
# [10] = molecular target: T5, human HER2 (human, UniProt P04626 23-652); test: ELISA, plate coated with 0.1 ug/ml human HER2, antibody titrated, absorbance 450 nm
# T5 construct: also called human HER2 (Sino Biological Inc.)
# Protocol: as §1, §2
# [11] = molecular target: T6, rat HER3 (rat, UniProt Q62799 20-641, limits assumed); test: ELISA, plate coated with 0.1 ug/ml rat HER3, antibody titrated, absorbance 450 nm
# T6 construct: also called rat homologue of HER3 (Sino Biological Inc.); R. norvegicus HER3
# Protocol: as §1, §2
# [12] = molecular target: T2, His-tagged human HER3; test: BLI (Octet QK384), antibody on anti-human IgG capture tips, His-tagged human HER3 35-278 nM, global 1:1 fit
# Protocol: as §3
# [13] = molecular target: T2, His-tagged human HER3; test: BLI (Octet QK384), antibody on anti-human IgG capture tips, His-tagged human HER3 in solution, global 1:1 fit, R^2 = 0.9946, kon Error 5.99E+03; Response 0.119 / 0.2877 / 0.4777 / 0.6639 at 35 / 69 / 139 / 278 nM
# Protocol: as §3
# [14] = molecular target: T2, His-tagged human HER3; test: BLI (Octet QK384), antibody on anti-human IgG capture tips, His-tagged human HER3 in solution, global 1:1 fit, R^2 = 0.9954, kon Error 4.57E+03; Response 0.0786 / 0.1929 / 0.3283 / 0.5147 at 35 / 69 / 139 / 278 nM
# Protocol: as §3
# [15] = molecular target: T2, His-tagged human HER3; test: BLI (Octet QK384), antibody on anti-human IgG capture tips, His-tagged human HER3 35-278 nM, global 1:1 fit; kdis Error 1.00E-04
# Protocol: as §3
# [16] = molecular target: T2, His-tagged human HER3; test: BLI (Octet QK384), antibody on anti-human IgG capture tips, His-tagged human HER3 in solution, global 1:1 fit, R^2 = 0.9951, kon Error 5.36E+03; Response 0.0037 / 0.1082 / 0.2868 / 0.3903 at 35 / 69 / 139 / 278 nM
# Protocol: as §3
# [17] = molecular target: T2, His-tagged human HER3; test: BLI (Octet QK384), antibody on anti-human IgG capture tips, His-tagged human HER3 35-278 nM, global 1:1 fit; kdis Error 1.16E-04
# Protocol: as §3
# [18] = molecular target: T2, His-tagged human HER3; test: BLI (Octet QK384), antibody on anti-human IgG capture tips, His-tagged human HER3 in solution, global 1:1 fit, R^2 = 0.9957, kon Error 3.54E+03; Response 0.0338 / 0.0911 / 0.1967 / 0.3885 at 35 / 69 / 139 / 278 nM
# Protocol: as §3
# [19] = molecular target: T2, His-tagged human HER3; test: BLI (Octet QK384), antibody on anti-human IgG capture tips, His-tagged human HER3 in solution, global 1:1 fit, R^2 = 0.9915, kon Error 7.36E+03; Response 0.114 / 0.2569 / 0.4134 / 0.5768 at 35 / 69 / 139 / 278 nM
# Protocol: as §3
# T6 sequence (Q62799 20-641 limits assumed): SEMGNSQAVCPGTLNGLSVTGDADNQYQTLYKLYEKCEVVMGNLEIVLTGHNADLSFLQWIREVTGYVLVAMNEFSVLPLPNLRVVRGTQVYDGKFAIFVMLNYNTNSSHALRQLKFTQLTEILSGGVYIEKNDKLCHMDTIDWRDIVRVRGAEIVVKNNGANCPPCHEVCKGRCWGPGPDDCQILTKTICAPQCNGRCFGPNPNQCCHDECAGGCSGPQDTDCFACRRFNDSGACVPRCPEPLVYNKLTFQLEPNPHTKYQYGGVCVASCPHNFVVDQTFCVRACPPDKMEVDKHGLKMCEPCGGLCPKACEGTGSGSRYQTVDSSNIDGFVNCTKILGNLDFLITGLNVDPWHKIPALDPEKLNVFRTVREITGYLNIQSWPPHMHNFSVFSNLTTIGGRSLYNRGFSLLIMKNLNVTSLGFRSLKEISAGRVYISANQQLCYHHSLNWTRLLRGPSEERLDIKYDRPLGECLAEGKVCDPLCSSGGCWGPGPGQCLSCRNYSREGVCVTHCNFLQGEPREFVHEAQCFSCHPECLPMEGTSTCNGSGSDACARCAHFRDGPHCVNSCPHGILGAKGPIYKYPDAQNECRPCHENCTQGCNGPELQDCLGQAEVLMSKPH
# T3 sequence (Q61526 20-641 limits assumed): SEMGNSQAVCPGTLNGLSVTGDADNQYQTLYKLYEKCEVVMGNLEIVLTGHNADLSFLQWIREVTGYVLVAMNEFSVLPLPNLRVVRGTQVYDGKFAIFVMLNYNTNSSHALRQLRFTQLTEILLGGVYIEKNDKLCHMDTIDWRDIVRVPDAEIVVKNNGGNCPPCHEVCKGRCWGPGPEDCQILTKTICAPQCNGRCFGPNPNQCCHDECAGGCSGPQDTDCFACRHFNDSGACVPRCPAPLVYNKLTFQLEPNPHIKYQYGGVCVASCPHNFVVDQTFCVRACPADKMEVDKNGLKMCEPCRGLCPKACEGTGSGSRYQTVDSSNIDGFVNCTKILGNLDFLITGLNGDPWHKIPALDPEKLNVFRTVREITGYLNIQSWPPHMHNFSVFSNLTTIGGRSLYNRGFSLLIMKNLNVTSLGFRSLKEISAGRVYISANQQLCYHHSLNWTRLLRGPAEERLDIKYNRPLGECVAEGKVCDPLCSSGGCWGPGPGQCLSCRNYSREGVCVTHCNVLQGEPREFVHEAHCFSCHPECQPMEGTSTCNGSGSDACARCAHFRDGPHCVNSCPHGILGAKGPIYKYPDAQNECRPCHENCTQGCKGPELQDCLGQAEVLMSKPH
binder,measurement,setting,value
B1,% Parent (HER3 positive),[1],74.4%
same,% Parent (HER3 positive),[2],99.5%
same,Kd,[3],< 0.001 nM
same,koff,[3],< 1e-07 s⁻¹
same,kon,[3],79800 M⁻¹ s⁻¹
same,% Parent (HE3 positive),[4],98.7%
B2,binding result,[5],binds
same,Kd,[6],80.9 nM
same,binding result,[7],binds
same,% Parent (HE3 positive),[8],43.2%
same,% Parent (HE3 positive),[9],43.2%
same,binding result,[10],binds
same,binding result,[11],binds
B3,Kd,[6],< 0.001 nM
same,koff,[12],< 1e-07 s⁻¹
same,kon,[13],188000 M⁻¹ s⁻¹
B4,kon,[14],147000 M⁻¹ s⁻¹
same,Kd,[6],0.41 nM
same,koff,[15],6.01e-05 s⁻¹
B5,Kd,[6],< 0.001 nM
same,koff,[12],< 1e-07 s⁻¹
same,kon,[16],148000 M⁻¹ s⁻¹
B6,Kd,[6],17.3 nM
same,koff,[17],0.00168 s⁻¹
same,kon,[18],97400 M⁻¹ s⁻¹
B7,Kd,[6],< 0.001 nM
same,koff,[12],< 1e-07 s⁻¹
same,kon,[19],188000 M⁻¹ s⁻¹
